Data: PMC9741652, “CRL2^ZER1/ZYG11B recognizes small N-terminal residues for degradation” (Nature Communications, 2022)

Experiments:
[1] = target: T1, GST-fused ZER1 (residues 469–766) (human, UniProt Q7Z7L7 469-766); assay: peptide or protein array; peptide SPOT array on cellulose membrane; purified GST-tagged ZER1 (50 nM) or ZYG11B (230 nM) in 10% glycerol, 0.1 M KCl, 1 mM EDTA, 20 mM HEPES pH 7.5, 1 h at room temperature; detected with anti-GST by chemiluminescence; details: both partners purified
T1 construct: ZER1, human, residues 469-766; Vector pACYC-GST is Addgene Plasmid #62329; also called GST-tagged ZER1_(469–766); source: purified; cloned into pACYC-GST
T1 sequence (Q7Z7L7 469-766): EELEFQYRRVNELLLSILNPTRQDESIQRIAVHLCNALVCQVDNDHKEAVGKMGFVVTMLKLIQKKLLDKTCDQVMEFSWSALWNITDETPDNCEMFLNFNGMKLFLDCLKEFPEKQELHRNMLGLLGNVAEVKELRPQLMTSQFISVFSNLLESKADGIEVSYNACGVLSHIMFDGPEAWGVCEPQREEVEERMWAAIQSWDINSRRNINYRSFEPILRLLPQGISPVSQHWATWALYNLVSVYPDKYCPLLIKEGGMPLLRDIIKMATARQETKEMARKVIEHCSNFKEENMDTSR

[2] = target: T2, GST-fused ZYG11B (residues 490–744) (UniProt Q9C0D3 490-744); assay: as above; details: both partners purified
T2 construct: ZYG11B, residues 490-744; Vector pACYC-GST is Addgene Plasmid #62329; also called GST-tagged ZYG11B_(490–744); source: purified; cloned into pACYC-GST
T2 sequence (Q9C0D3 490-744): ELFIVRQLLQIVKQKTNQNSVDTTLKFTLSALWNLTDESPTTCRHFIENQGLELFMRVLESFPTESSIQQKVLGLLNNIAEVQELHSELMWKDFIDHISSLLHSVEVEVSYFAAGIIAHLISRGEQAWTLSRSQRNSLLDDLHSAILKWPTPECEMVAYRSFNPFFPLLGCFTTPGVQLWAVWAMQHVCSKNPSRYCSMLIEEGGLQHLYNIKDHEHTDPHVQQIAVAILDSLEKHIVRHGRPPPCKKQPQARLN

| binding result [1] | binding result [2] | Binder |
| --- | --- | --- |
| binds | binds | SFLHVGQDGLELPTS (numbers count on: the peptide; Spot on a cellulose membrane; also called Nt-Ser (SPOT array); source: synthetic peptide, synthesized on cellulose membrane (SPOT array)) [SFLHVGQDGLELPTS peptide (15-mer, position 1 Ser)] |
| binds | – | TFLHVGQDGLELPTS (numbers count on: the peptide; Spot on a cellulose membrane; also called Nt-Thr (SPOT array); source: synthetic peptide, synthesized on cellulose membrane (SPOT array)) [TFLHVGQDGLELPTS peptide (15-mer, position 1 Thr)] |
| binds | binds | AFLHVGQDGLELPTS (numbers count on: the peptide; Spot on a cellulose membrane; also called Nt-Ala (SPOT array); source: synthetic peptide, synthesized on cellulose membrane (SPOT array)) [AFLHVGQDGLELPTS peptide (15-mer, position 1 Ala)] |
| – | binds | GFLHVGQDGLELPTS (15-mer derived from the N-terminus of ZNF701; Spot on a cellulose membrane; also called Nt-Gly (SPOT array); source: synthetic peptide, synthesized on cellulose membrane (SPOT array)) [GFLHVGQDGLELPTS peptide (15-mer from the N-terminus of ZNF701)] |
